Measured values reported in patent US20230272067A1 (HUAHUI HEALTH, published 2023).
Positions count from the first letter of the chain named. Numbers in names are those of the source. Blank lines part the entries; values can stand above or below the binder they belong to.

How the values were obtained:
[1] = target: T1, extracellular domain (ECD) of human TIGIT (human, UniProt Q495A1 22-141, biotinylated (site not stated)); assay: SPR (Biacore T200), multi-cycle kinetics
T1 construct: extracellular domain; Used captured on streptavidin in ELISA and as analyte in SPR (extracellular domain); also called hTIGIT-ECD; hTIGIT-ECD-Biotin; not shown: expressed as a biotinylated recombinant fusion protein
T1 sequence (looked up): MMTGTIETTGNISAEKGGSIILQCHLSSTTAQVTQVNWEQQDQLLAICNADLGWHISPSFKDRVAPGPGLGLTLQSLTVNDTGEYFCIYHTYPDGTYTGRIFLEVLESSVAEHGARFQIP

[2] = target: T2, extracellular domain (ECD) of mouse TIGIT (mouse, UniProt P86176 29-148, biotinylated (site not stated)); assay: SPR (Biacore T200), multi-cycle kinetics
T2 construct: extracellular domain; Used captured on streptavidin in ELISA and as analyte in SPR (extracellular domain); also called mTIGIT-ECD; mTIGIT-ECD-Biotin; not shown: expressed as a biotinylated recombinant fusion protein
T2 sequence (looked up): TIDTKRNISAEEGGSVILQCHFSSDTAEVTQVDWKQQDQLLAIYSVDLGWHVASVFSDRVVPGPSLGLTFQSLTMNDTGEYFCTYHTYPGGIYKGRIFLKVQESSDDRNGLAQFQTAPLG

[3] = target: T1, extracellular domain (ECD) of human …; assay: SPR (Biacore T200), multi-cycle kinetics, FIG. 11 (hTIGIT or mTIGIT)
[4] = target: T2, extracellular domain (ECD) of mouse …; assay: as above
[5] = target: T3, full-length human TIGIT expressed on cells (human, UniProt Q495A1 22-244); assay: FACS on CHO cells transiently expressing full-length hTIGIT, hIgG1 format
T3 construct: whole, on cells; also called CHO-hTIGIT; YTS-hTIGIT
T3 sequence (looked up): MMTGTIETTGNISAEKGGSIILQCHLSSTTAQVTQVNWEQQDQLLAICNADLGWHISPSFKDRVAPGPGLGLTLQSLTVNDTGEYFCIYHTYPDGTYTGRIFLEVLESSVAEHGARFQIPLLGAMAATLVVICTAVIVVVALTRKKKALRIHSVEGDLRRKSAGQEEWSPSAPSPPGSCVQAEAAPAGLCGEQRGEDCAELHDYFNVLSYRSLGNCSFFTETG
Procedure: (§1) For epitope mapping, chimeras of human TIGIT IgV domain and N-terminal IgV domain D1 of hCD155 were constructed by replacing residues in the extracellular regions of hTIGIT with the corresponding residues from hCD155 D 1. These chimera and variants were expressed by transient transfection of CHO or 293T cells, their cell surface expression levels were assessed by using a mAb GC33 recognizing the N-terminal tag fused to each of the chimera and variant or hCD155-hFc (4). The binding of testing Abs in human IgG1 (hIgG1) format or hCD155-hFc to these transfectants were detected by using goat anti-human IgG-FITC antibody (Thermo Fisher Scientific). The cells were then analyzed with FACS machine (BD Accuri™ C6).
By transfecting CHO cells with these hTIGIT/hCD155 chimeras or hTIGIT variants, and by subsequently analyzing T4, CS19ME3-23, and CS19ME3-30-N Abs binding to these CHO transfectant cells by FACS, it was identified that the FG Loop in the extracellular IgV domain of hTIGIT is critical for these Abs′ binding (FIG. 12B). […] Thus, by binding to the FG Loop, these three Abs block the binding of TIGIT to its ligand CD155. Due to the high amino acid sequence homology in this loop between hTIGIT and mTIGIT, these three Abs are able to cross-react with both of them.

[6] = target: T4, hTIGIT variant S78A (full length, on 293T cells) (human, UniProt Q495A1 22-244); assay: FACS on 293T cells transiently expressing the variant
T4 construct: whole, on cells
T4 sequence (looked up): T3 sequence (looked up) with S57A
Procedure: as §1
(§2) To investigate the role of these residues in the binding of anti-TIGIT antibodies of the present disclosure to hTIGIT, three hTIGIT variants each having a single point mutation selected from S78A, […], and K82A were generated. By transfecting 293T cells with these hTIGIT variants and by subsequently analyzing CS19ME3-30-N Abs binding to these 293T transfectant cells by FACS, it was identified that none of the three residues in the extracellular IgV domain of hTIGIT is critical for these Abs′ binding (FIG. 12C).

[7] = target: T5, hTIGIT variant S80A (full length, on 293T cells) (human, UniProt Q495A1 22-244); assay: as above
T5 construct: whole, on cells; also called 580A [sic]
T5 sequence (looked up): T3 sequence (looked up) with S59A
Procedure: as §1, §2

[8] = target: T6, hTIGIT variant K82A (full length, on 293T cells) (human, UniProt Q495A1 22-244); assay: as above
T6 construct: whole, on cells
T6 sequence (looked up): T3 sequence (looked up) with K61A
Procedure: as §1, §2

binding result [1]: binds
binding result [2]: binds
B1: T4M (antibody, V domains shown)
VH: QVQLQQWGAGLLKPSETLSLTCAVYGGSFNDYYWTWIRQAPGKGLEWIGEITHSGSADYNPSLKSRVTISVDTSKNQFSLKLRSVTAADTAVYYCARGLKLFRWKKTTVTTFPPYYYGMDVWGQGTTVTVSS
VL: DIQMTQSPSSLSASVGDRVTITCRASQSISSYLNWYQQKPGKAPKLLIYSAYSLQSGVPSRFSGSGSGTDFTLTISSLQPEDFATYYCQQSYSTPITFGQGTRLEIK
notes: T4 Vk with S50 and Y52 incorporated; IgG format captured by anti-hFc in SPR; also called T4M Ab

binding result [3]: binds
binding result [4]: binds
binding result [5]: binds
B2: CS19ME3-23 (antibody, human IgG1, V domains shown)
VH: EVQLLESGGGLVQPGGSLRLSCAASGFTFSSYAMHWVRQAPGKGLEWVAVISYDGSNKYYADSVKGRFTISRDNSKNTLYLQMNSLRAEDTAVYYCATLEGGGRYYDFWSADYWGQGTLVTVSS
VL: QSALTQPRSVSGSPGQSVTISCTGTSSDVGGYNFVSWYQQHPGKAPKLLIYAVSKRPSGVPDRFSGSKSGNTASLTISGLQAEDEADYYCSSYSSESTRVVFGGGTKLTVL
notes: tested as human IgG1 (hIgG1); also called CS19ME3-23 Ab

binding result [6]: binds
binding result [7]: binds
binding result [8]: binds
binding result [3]: binds
binding result [4]: binds
binding result [5]: binds
B3: CS19ME3-30-N (antibody, human IgG1, V domains shown)
VH: B2 VH with E1Q, L5V, L11V, G16R
VL: B2 VL with K55N
notes: tested as human IgG1 (hIgG1); also called CS19ME3-30-N Ab
